Residue numbers refer to the chain shown, from its start. Where two headings read alike, the source gives them in different places.
Experiments:
SsoRadA [1] = target: T1, SsoRadA (Saccharolobus solfataricus, UniProt Q55075); test: filter binding, saturation binding curve
T1 sequence (Q55075 1-324): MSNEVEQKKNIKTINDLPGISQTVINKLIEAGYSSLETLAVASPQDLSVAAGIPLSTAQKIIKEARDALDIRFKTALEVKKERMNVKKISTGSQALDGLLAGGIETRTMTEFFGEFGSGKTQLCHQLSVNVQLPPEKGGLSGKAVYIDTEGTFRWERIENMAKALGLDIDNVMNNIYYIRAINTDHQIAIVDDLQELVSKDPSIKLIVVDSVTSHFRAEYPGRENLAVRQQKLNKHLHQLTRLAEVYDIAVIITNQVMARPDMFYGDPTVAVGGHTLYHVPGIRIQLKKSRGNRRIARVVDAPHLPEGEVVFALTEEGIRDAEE

SsoRadA [2] = target: SsoRadA (Saccharolobus solfataricus, UniProt Q55075, K120R); test: filter binding, saturation binding curve
Chain of SsoRadA (Saccharolobus solfataricus, UniProt Q55075, K120R) (Q55075 whole entry K120R): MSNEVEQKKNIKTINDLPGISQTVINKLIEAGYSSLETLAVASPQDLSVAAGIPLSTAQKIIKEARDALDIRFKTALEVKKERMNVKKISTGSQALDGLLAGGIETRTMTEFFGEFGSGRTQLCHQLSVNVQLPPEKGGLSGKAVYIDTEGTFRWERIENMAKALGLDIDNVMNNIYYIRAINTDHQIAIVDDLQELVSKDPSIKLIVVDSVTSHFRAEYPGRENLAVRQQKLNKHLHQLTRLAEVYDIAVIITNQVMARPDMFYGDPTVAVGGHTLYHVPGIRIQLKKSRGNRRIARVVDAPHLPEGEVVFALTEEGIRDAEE

SsoRadA [3] = target: T2, SsoRadA (Sulfolobus solfataricus, UniProt Q55075 1-324); test: EMSA
T2 sequence: T1 sequence (Q55075 1-324)

SsoRadA K120A [4] = target: T3, SsoRadA K120A (Sulfolobus solfataricus, UniProt Q55075 1-324, K120A); test: EMSA
T3 sequence: T1 sequence (Q55075 1-324) with K120A

SsoRadA [5] = target: T2, SsoRadA; test: EMSA; remark: listed apart in the source
SsoRadA K120R = target: T4, SsoRadA K120R (Sulfolobus solfataricus, UniProt Q55075 1-324, K120R); test: EMSA
T4 sequence: T1 sequence (Q55075 1-324) with K120R

SsoRadA K120A [6] = target: T3, SsoRadA K120A; test: EMSA; remark: listed apart in the source

With Nc1ncnc2c1ncn2[C@@H]1O[C@H](COP(=O)(O)OP(=O)(O)OP(=O)(O)O)[C@@H](O)[C@H]1O [ATP] the Kd (SsoRadA [1]) was 2.4 ± 0.6 µM and the Kd (SsoRadA [2]) was 59.4 ± 9.4 µM.

B1: 63-mer ssDNA (ssDNA)
DNA: ACAGCACCAATGAAATCTATTAAGCTCCTCATCGTCCGCAAAAATATCGTCACCTCAAAAGGA
B1: binds (SsoRadA [3]); binds (SsoRadA K120A [4]).

B2: 63-mer dsDNA (dsDNA)
DNA 1: B1 DNA
DNA 2: TCCTTTTGAGGTGACGATATTTTTGCGGACGATGAGGAGCTTAATAGATTTCATTGGTGCTGT
B2: no binding (SsoRadA [5]); no binding (SsoRadA K120R); no binding (SsoRadA K120A [6]).
